Assay results taken from the supplement of paper PMC10567573.

B1: SLC19A2 (parent)
chain: FASLRPSEPFLTPYLLGPDKNLTE

Variants of: B1
Assay: protein stability index of a GFP-peptide fusion (GPS, HEK-293T) (PSI 1-6); higher = more stable
Conditions: c terminus: a fixed tail appended
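Further: lentivirally expressed fusions sorted by FACS into six bins by GFP to DsRed ratio, PSI derived from sequencing read proportions per bin multiplied by bin number.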

Row | Variant | protein stability index
1 | FASLRPSEPFLTTYLLGPDKNLTE [P13T] | 1.66
2 | FASLRPSEPFLTAYLLGPDKNLTE [P13A] | 2.58
3 | FASLRPSEPFLTRYLLGPDKNLTE [P13R] | 1.68
4 | FASLRPSEPFLTGYLLGPDKNLTE [P13G] | 1.59
5 | FASLRPSEPFLTQYLLGPDKNLTE [P13Q] | 1.94
6 | FASLRPSEPFLTDYLLGPDKNLTE [P13D] | 2.28
7 | FASLRPSEPFLTHYLLGPDKNLTE [P13H] | 1.76
8 | FASLRPSEPFLTWYLLGPDKNLTE [P13W] | 1.88
9 | FASLRPSEPFLTMYLLGPDKNLTE [P13M] | 1.46
10 | FASLRPSEPFLTNYLLGPDKNLTE [P13N] | 1.86
11 | FASLRPSEPFLTFYLLGPDKNLTE [P13F] | 2.1
12 | FASLRPSEPALTPYLLGPDKNLTE [F10A] | 2.52
13 | FASLRPSEPPLTPYLLGPDKNLTE [F10P] | 3.15
14 | FASLRPSEPSLTPYLLGPDKNLTE [F10S] | 2.16
15 | FASLRPSEPELTPYLLGPDKNLTE [F10E] | 2.66
16 | FASLRPSEPKLTPYLLGPDKNLTE [F10K] | 2.72
17 | FASLRPSEPCLTPYLLGPDKNLTE [F10C] | 2.11
18 | FASLRPSEPLLTPYLLGPDKNLTE [F10L] | 2.12
19 | FASLRPSEPGLTPYLLGPDKNLTE [F10G] | 2.3
20 | FASLRPSEPFLTPKLLGPDKNLTE [Y14K] | 2.42
21 | FASLRPSEPFLTPLLLGPDKNLTE [Y14L] | 2.06
22 | FASLRPSEPFLTPELLGPDKNLTE [Y14E] | 2.76
23 | FASLRPSEPFLTPWLLGPDKNLTE [Y14W] | 1.46
24 | FASLRPSEPFLTPMLLGPDKNLTE [Y14M] | 2.6

Row | Variant | protein stability index
25 | FASLRPSEPFLTPQLLGPDKNLTE [Y14Q] | 2.69
26 | FASLRPSEPFLTPSLLGPDKNLTE [Y14S] | 2.21
27 | FASLRPSEPFLTPFLLGPDKNLTE [Y14F] | 2.38
28 | FAWLRPSEPFLTPYLLGPDKNLTE [S3W] | 1.54
29 | FAGLRPSEPFLTPYLLGPDKNLTE [S3G] | 1.65
30 | FAVLRPSEPFLTPYLLGPDKNLTE [S3V] | 2.65
31 | FARLRPSEPFLTPYLLGPDKNLTE [S3R] | 1.71
32 | FACLRPSEPFLTPYLLGPDKNLTE [S3C] | 1.23
33 | FADLRPSEPFLTPYLLGPDKNLTE [S3D] | 3.05
34 | FAALRPSEPFLTPYLLGPDKNLTE [S3A] | 1.59
35 | FAKLRPSEPFLTPYLLGPDKNLTE [S3K] | 2.78
36 | FAHLRPSEPFLTPYLLGPDKNLTE [S3H] | 1.87
37 | FAMLRPSEPFLTPYLLGPDKNLTE [S3M] | 1.74
38 | FAYLRPSEPFLTPYLLGPDKNLTE [S3Y] | 2.53
39 | FASLRPSEPFLHPYLLGPDKNLTE [T12H] | 1.72
40 | FASLRPSEPFLCPYLLGPDKNLTE [T12C] | 2.1
41 | FASLRPSEPFLRPYLLGPDKNLTE [T12R] | 1.74
42 | FASLRPSEPFLWPYLLGPDKNLTE [T12W] | 2.17
43 | FASLRPSEPFLAPYLLGPDKNLTE [T12A] | 1.79
44 | FASLRPSEPFLGPYLLGPDKNLTE [T12G] | 2.35
45 | FASLRPSEPFLMPYLLGPDKNLTE [T12M] | 1.93
46 | FASLRPSEPFLQPYLLGPDKNLTE [T12Q] | 2.3
47 | FASLRPSEYFLTPYLLGPDKNLTE [P9Y] | 2.29
48 | FASLRPSEFFLTPYLLGPDKNLTE [P9F] | 3.54

Row | Variant | protein stability index
49 | FASLRPSEDFLTPYLLGPDKNLTE [P9D] | 2.85
50 | FASLRPSENFLTPYLLGPDKNLTE [P9N] | 2.52
51 | FASLRPSERFLTPYLLGPDKNLTE [P9R] | 1.39
52 | FASLRPSEIFLTPYLLGPDKNLTE [P9I] | 1.77
53 | FASLRPSEVFLTPYLLGPDKNLTE [P9V] | 2.9
54 | FASLRPSEHFLTPYLLGPDKNLTE [P9H] | 1.67
55 | FASLRPSEQFLTPYLLGPDKNLTE [P9Q] | 1.98
56 | FASWRPSEPFLTPYLLGPDKNLTE [L4W] | 3.5
57 | FASHRPSEPFLTPYLLGPDKNLTE [L4H] | 1.69
58 | FASARPSEPFLTPYLLGPDKNLTE [L4A] | 1.89
59 | FASYRPSEPFLTPYLLGPDKNLTE [L4Y] | 1.7
60 | FASRRPSEPFLTPYLLGPDKNLTE [L4R] | 2.24
61 | FASTRPSEPFLTPYLLGPDKNLTE [L4T] | 2.23
62 | FASQRPSEPFLTPYLLGPDKNLTE [L4Q] | 2.15
63 | FASVRPSEPFLTPYLLGPDKNLTE [L4V] | 1.86
64 | FASNRPSEPFLTPYLLGPDKNLTE [L4N] | 1.74
65 | FASFRPSEPFLTPYLLGPDKNLTE [L4F] | 1.93
66 | FASLRPSEPFLTPYLKGPDKNLTE [L16K] | 2.27
67 | FASLRPSEPFLTPYLQGPDKNLTE [L16Q] | 1.8
68 | FASLRPSEPFLTPYLDGPDKNLTE [L16D] | 2.65
69 | FASLRPSEPFLTPYLVGPDKNLTE [L16V] | 1.79
70 | FASLRPSEPFLTPYLTGPDKNLTE [L16T] | 1.8
71 | FASLRPSEPFLTPYLAGPDKNLTE [L16A] | 2.31
72 | FASLRPSEPFLTPYLPGPDKNLTE [L16P] | 1.79

Row | Variant | protein stability index
73 | FASLRPSEPFLTPYLFGPDKNLTE [L16F] | 2.04
74 | FASLRPSEPFLTPYLCGPDKNLTE [L16C] | 2.07
75 | FASLRPSEPFLTPYLSGPDKNLTE [L16S] | 2.56
76 | FASLRPSEPFLTPYLRGPDKNLTE [L16R] | 2.44
77 | FASLRPSEPFLTPYLLGNDKNLTE [P18N] | 1.48
78 | FASLRPSEPFLTPYLLGIDKNLTE [P18I] | 2.31
79 | FASLRPSEPFLTPYLLGWDKNLTE [P18W] | 1.76
80 | FASLRPSEPFLTPYLLGSDKNLTE [P18S] | 1.87
81 | FASLRPSEPFLTPYLLGHDKNLTE [P18H] | 2.53
82 | FASLRPSEPFLTPYLLGMDKNLTE [P18M] | 2.06
83 | FASLRPSEPFLTPYLLPPDKNLTE [G17P] | 2.62
84 | FASLRPSEPFLTPYLLAPDKNLTE [G17A] | 1.81
85 | FASLRPSEPFLTPYLLSPDKNLTE [G17S] | 2.41
86 | FASLRPSEPFLTPYLLDPDKNLTE [G17D] | 1.59
87 | FASLRPSEPFLTPYLLIPDKNLTE [G17I] | 4.07
88 | FASLRPSEPFLTPYLLMPDKNLTE [G17M] | 1.7
89 | FASLRPSEPFLTPYLLHPDKNLTE [G17H] | 1.75
90 | FASLRPSEPFLTPYLLRPDKNLTE [G17R] | 1.99
91 | FASLRPSEPFLTPYLLYPDKNLTE [G17Y] | 1.79
92 | FASLRPSEPFLTPYLLGPNKNLTE [D19N] | 1.46
93 | FASLRPSEPFLTPYLLGPFKNLTE [D19F] | 1.87
94 | FASLRPSEPFLTPYLLGPIKNLTE [D19I] | 1.92
